According to the supplement of paper PMC5998384:

Columns and labels:
HeLa Kyoto [1] = assay: melting temperature (median over replicates), in situ; higher = more thermally stable
HeLa Kyoto [2] = assay: thermal stability score vs G1/S (z-score of summed log2 fold changes over temperatures); higher = more thermally stable than in G1/S
HeLa Kyoto [3] = assay: solubility in G1/S (NP-40 vs SDS abundance) (log2 ratio); higher = more soluble; conditions: cell cycle stage: G1/S
HeLa Kyoto [4] = assay: solubility change mitosis vs G1/S (difference of NP-40 vs SDS log2 ratios) (log2 ratio difference); higher = more soluble in mitosis
[5] = cell cycle stage: early G1 (4.5 h after nocodazole release)
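Wherever melting temperature (median over replicates), in situ is given: HeLa Kyoto cells synchronized by double thymidine or nocodazole block, proteins quantified by TMT10plex mass spectrometry, three independent biological replicates.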
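Wherever solubility change mitosis vs G1/S (difference of NP-40 vs SDS log2 ratios) is given: synchronized HeLa Kyoto cells (double thymidine block for G1/S, nocodazole release for mitosis), protein amounts in NP-40 versus SDS lysates quantified by mass spectrometry, three biological replicates.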
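Wherever solubility in G1/S (NP-40 vs SDS abundance) is given: HeLa Kyoto cells arrested at G1/S by double thymidine block, proteins quantified by TMT10plex mass spectrometry in mild NP-40 versus SDS extracts, three biological replicates.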
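Wherever thermal stability score vs G1/S (z-score of summed log2 fold changes over temperatures) is given: synchronized HeLa Kyoto cells, proteins quantified by TMT10plex mass spectrometry, three biological replicates, mitosis taken 0.5 h after nocodazole release, G1/S directly after double thymidine block.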

## MMCEVMPTISEAEGPPGGGGGHGSGSPSQPDADSHFEQLMVSMLEERDRLLDTLRETQETLALTQGKLHEVGHERDSLQRQLNTALPQEFAALTKELNVCREQLLEREEEIAELKAERNNTRLLLEHLECLVSRHERSLRMTVVKRQAQSPAGVSSEVEVLKALKSLFEHHKALDEKVRERLRVALERCSLLEEELGATHKELMILKEQNNQKKTLTDGVLDINHEQENTPSTSGKRSSDGSLSHEEDLAKVIELQEIISKQSREQSQMKERLASLSSHVTELEEDLDTARKDLIKSEEMNTKLQRDVREAMAQKEDMEERITTLEKRYLAAQREATSVHDLNDKLENEIANKDSMHRQTEDKNRQLQERLELAEQKLQQTLRKAETLPEVEAELAQRVAALSKAEERHGNIEERLRQMEAQLEEKNQELQRARQREKMNEEHNKRLSDTVDKLLSESNERLQLHLKERMAALEDKNSLLREVESAKKQLEETQHDKDQLVLNIEALRAELDHMRLRGASLHHGRPHLGSVPDFRFPMADGHTDSYSTSAVLRRPQKGRLAALRDEPSKVQTLNEQDWERAQQASVLANVAQAFESDADVSDGEDDRDTLLSSVDLLSPSGQADAHTLAMMLQEQLDAINKEIRLIQEEKENTEQRAEEIESRVGSGSLDNLGRFRSMSSIPPYPASSLASSSPPGSGRSTPRRIPHSPAREVDRLGVMTLLPPSREEVRDDKTTIKCETSPPSSPRALRLDRLHKGALHTVSHEDIRDIRNSTGSQDGPVSNPSSSNSSQDSLHKAPKKKGIKSSIGRLFGKKEKGRPGQTGKEALGQAGVSETDNSSQDALGLSKLGGQAEKNRKLQKKHELLEEARRQGLPFAQWDGPTVVVWLELWVGMPAWYVAACRANVKSGAIMSALSDTEIQREIGISNPLHRLKLRLAIQEIMSLTSPSAPPTSRTTLAYGDMNHEWIGNEWLPSLGLPQYRSYFMECLVDARMLDHLTKKDLRGQLKMVDSFHRNSFQCGIMCLRRLNYDRKELERKREESQSEIKDVLVWSNDRVIRWILSIGLKEYANNLIESGVHGALLALDETFDFSALALLLQIPTQNTQARAVLEREFNNLLVMGTDRRFDEDDDKSFRRAPSWRKKFRPKDIRGLAAGSAETLPANFRVTSSMSSPSMQPKKMQMDGNVSGTQRLDSATVRTYSC [PPFIA1]
HeLa Kyoto [1]; cell cycle stage: G1/S
  melting temperature: 49.8 °C
HeLa Kyoto [1]; cell cycle stage: mitosis
  melting temperature: 50.2 °C
HeLa Kyoto [2]; [5]
  thermal stability score: 1.52
HeLa Kyoto [2]; cell cycle stage: mitosis
  thermal stability score: 1.91
HeLa Kyoto [3]
  solubility in G1/S (log2): 0.137
HeLa Kyoto [4]
  solubility change mitosis (log2): -0.0196

## MMSDEKNLGVSQKLVSPSRSTSSCSSKQGSRQDSWEVVEGLRGEMNYTQEPPVQKGFLLKKRKWPLKGWHKRFFYLDKGILKYAKSQTDIEREKLHGCIDVGLSVMSVKKSSKCIDLDTEEHIYHLKVKSEEVFDEWVSKLRHHRMYRQNEIAMFPHEVNHFFSGSTITDSSSGVFDSISSRKRSSISKQNLFQTGSNVSFSCGGETRVPLWLQSSEDMEKCSKDLAHCHAYLVEMSQLLQSMDVLHRTYSAPAINAIQGGSFESPKKEKRSHRRWRSRAIGKDAKGTLQVPKPFSGPVRLHSSNPNLSTLDFGEEKNYSDGSETSSEFSKMQEDLCHIAHKVYFTLRSAFNIMSAEREKLKQLMEQDASSSPSAQVIGLKNALSSALAQNTDLKERLRRIHAESLLLDSPAVAKSGDNLAEENSRDENRALVHQLSNESRLSITDSLSEFFDAQEVLLSPSSSENEISDDDSYVSDISDNLSLDNLSNDLDNERQTLGPVLDSGREAKSRRRTCLPAPCPSSSNISLWNILRNNIGKDLSKVAMPVELNEPLNTLQRLCEELEYSELLDKAAQIPSPLERMVYVAAFAISAYASSYYRAGSKPFNPVLGETYECIREDKGFQFFSEQVSHHPPISACHAESRNFVFWQDVRWKNKFWGKSMEIVPIGTTHVTLPVFGDHFEWNKVTSCIHNILSGQRWIEHYGEIVIKNLHDDSCYCKVNFIKAKYWSTNAHEIEGTVFDRSGKAVHRLFGKWHESIYCGGGSSSACVWRANPMPKGYEQYYSFTQFALELNEMDPSSKSLLPPTDTRFRPDQRFLEEGNLEEAEIQKQRIEQLQRERRRVLEENHVEHQPRFFRKSDDDSWVSNGTYLELRKDLGFSKLDHPVLW [OSBPL3]
HeLa Kyoto [1]; cell cycle stage: G1/S
  melting temperature: 48.8 °C
HeLa Kyoto [1]; cell cycle stage: mitosis
  melting temperature: 48.7 °C
HeLa Kyoto [2]; [5]
  thermal stability score: 0.31
HeLa Kyoto [2]; cell cycle stage: mitosis
  thermal stability score: 0.491
HeLa Kyoto [3]
  solubility in G1/S (log2): -0.196
HeLa Kyoto [4]
  solubility change mitosis (log2): -0.0655

## MSESFDCAKCNESLYGRKYIQTDSGPYCVPCYDNTFANTCAECQQLIGHDSRELFYEDRHFHEGCFRCCRCQRSLADEPFTCQDSELLCNDCYCSAFSSQCSACGETVMPGSRKLEYGGQTWHEHCFLCSGCEQPLGSRSFVPDKGAHYCVPCYENKFAPRCARCSKTLTQGGVTYRDQPWHRECLVCTGCQTPLAGQQFTSRDEDPYCVACFGELFAPKCSSCKRPIVGLGGGKYVSFEDRHWHHNCFSCARCSTSLVGQGFVPDGDQVLCQGCSQAGP [FHL3]
HeLa Kyoto [1]; cell cycle stage: G1/S
  melting temperature: 57.7 °C
HeLa Kyoto [1]; cell cycle stage: mitosis
  melting temperature: 56.8 °C
HeLa Kyoto [2]; [5]
  thermal stability score: 0.504
HeLa Kyoto [2]; cell cycle stage: mitosis
  thermal stability score: -1.78
HeLa Kyoto [3]
  solubility in G1/S (log2): -0.281
HeLa Kyoto [4]
  solubility change mitosis (log2): -0.184

## MSSIGTGYDLSASTFSPDGRVFQVEYAMKAVENSSTAIGIRCKDGVVFGVEKLVLSKLYEEGSNKRLFNVDRHVGMAVAGLLADARSLADIAREEASNFRSNFGYNIPLKHLADRVAMYVHAYTLYSAVRPFGCSFMLGSYSVNDGAQLYMIDPSGVSYGYWGCAIGKARQAAKTEIEKLQMKEMTCRDIVKEVAKIIYIVHDEVKDKAFELELSWVGELTNGRHEIVPKDIREEAEKYAKESLKEEDESDDDNM [PSMA3]
HeLa Kyoto [1]; cell cycle stage: G1/S
  melting temperature: 60.7 °C
HeLa Kyoto [1]; cell cycle stage: mitosis
  melting temperature: 56.7 °C
HeLa Kyoto [2]; [5]
  thermal stability score: -2.57
HeLa Kyoto [2]; cell cycle stage: mitosis
  thermal stability score: -3.19
HeLa Kyoto [3]
  solubility in G1/S (log2): 0.204
HeLa Kyoto [4]
  solubility change mitosis (log2): -0.0697

## MAAAYLDPNLNHTPNSSTKTHLGTGMERSPGAMERVLKVFHYFESNSEPTTWASIIRHGDATDVRGIIQKIVDSHKVKHVACYGFRLSHLRSEEVHWLHVDMGVSSVREKYELAHPPEEWKYELRIRYLPKGFLNQFTEDKPTLNFFYQQVKSDYMLEIADQVDQEIALKLGCLEIRRSYWEMRGNALEKKSNYEVLEKDVGLKRFFPKSLLDSVKAKTLRKLIQQTFRQFANLNREESILKFFEILSPVYRFDKECFKCALGSSWIISVELAIGPEEGISYLTDKGCNPTHLADFTQVQTIQYSNSEDKDRKGMLQLKIAGAPEPLTVTAPSLTIAENMADLIDGYCRLVNGTSQSFIIRPQKEGERALPSIPKLANSEKQGMRTHAVSVSETDDYAEIIDEEDTYTMPSTRDYEIQRERIELGRCIGEGQFGDVHQGIYMSPENPALAVAIKTCKNCTSDSVREKFLQEALTMRQFDHPHIVKLIGVITENPVWIIMELCTLGELRSFLQVRKYSLDLASLILYAYQLSTALAYLESKRFVHRDIAARNVLVSSNDCVKLGDFGLSRYMEDSTYYKASKGKLPIKWMAPESINFRRFTSASDVWMFGVCMWEILMHGVKPFQGVKNNDVIGRIENGERLPMPPNCPPTLYSLMTKCWAYDPSRRPRFTELKAQLSTILEEEKAQQEERMRMESRRQATVSWDSGGSDEAPPKPSRPGYPSPRSSEGFYPSPQHMVQTNHYQVSGYPGSHGITAMAGSIYPGQASLLDQTDSWNHRPQEIAMWQPNVEDSTVLDLRGIGQVLPTHLMEERLIRQQQEMEEDQRWLEKEERFLKPDVRLSRGSIDREDGSLQGPIGNQHIYQPVGKPDPAAPPKKPPRPGAPGHLGSLASLSSPADSYNEGVKLQPQEISPPPTANLDRSNDKVYENVTGLVKAVIEMSSKIQPAPPEEYVPMVKEVGLALRTLLATVDETIPLLPASTHREIEMAQKLLNSDLGELINKMKLAQQYVMTSLQQEYKKQMLTAAHALAVDAKNLLDVIDQARLKMLGQTRPH [PTK2]
HeLa Kyoto [1]; cell cycle stage: G1/S
  melting temperature: 53 °C
HeLa Kyoto [1]; cell cycle stage: mitosis
  melting temperature: 53.2 °C
HeLa Kyoto [2]; [5]
  thermal stability score: 0.562
HeLa Kyoto [2]; cell cycle stage: mitosis
  thermal stability score: 0.0674
HeLa Kyoto [3]
  solubility in G1/S (log2): -0.0233
HeLa Kyoto [4]
  solubility change mitosis (log2): -0.0593
